The assay has as its target T1, B. subtilis DnaA (no tag) (B. subtilis, UniProt P05648 1-446).
T1 sequence (looked up): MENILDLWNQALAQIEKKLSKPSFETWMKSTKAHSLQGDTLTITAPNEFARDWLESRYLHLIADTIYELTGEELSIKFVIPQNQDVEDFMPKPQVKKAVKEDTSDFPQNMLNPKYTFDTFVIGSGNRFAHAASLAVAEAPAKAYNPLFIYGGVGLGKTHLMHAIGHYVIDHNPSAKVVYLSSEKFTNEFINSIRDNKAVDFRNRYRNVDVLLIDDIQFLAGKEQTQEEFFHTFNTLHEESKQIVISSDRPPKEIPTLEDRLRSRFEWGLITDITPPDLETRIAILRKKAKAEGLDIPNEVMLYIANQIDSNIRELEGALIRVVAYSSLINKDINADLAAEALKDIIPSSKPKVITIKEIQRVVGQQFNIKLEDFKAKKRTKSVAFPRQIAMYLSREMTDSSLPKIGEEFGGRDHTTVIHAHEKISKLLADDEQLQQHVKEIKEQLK
As to the kind of experiment: native gel or EMSA. On the technique in general: A gel shift assay detects complexes by their altered migration in electrophoresis.

B1: his-YabA (recombinant YabA with a hexa-histidine tag at its N-terminus) (natural protein)
chain: not shown
B1: the binding result was “binds”.
